Assay results: the domain aggregation screens of Martell et al. (2025)

Test: soluble fraction after stress (log2 fold change); higher = more stays soluble; pooled small domains, quantitative proteomics
Details: stress: 75 degC
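Also: 20 min heating vs room temperature control held 20 min.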

Sequence | soluble fraction (log2)
HMGESYQIKDGELLVDIAQRVKPAGMTLRQTINALVAANPRAFRNGNPDLMYRGATLTIPDGDTLRRLAH | -0.0841
HMGEVQALIPGLVSKLFVVEGESVKIGQKLIILEAMKMENEIASPINGTIKKIYIKSGDKIDKGSIIMEIT | -3.41
HMGEVVSAPMPGTILSIKVSQGQTVKRGQVLLILEAMKMENEIVAPRDGVVVQISTTQGASVETGAPLVVL | -1.1
HMGEVYPSDIVEKMKQANLHILEGTLYPLLTRLKNAGLLNYRWVESVTGPPRKYFVMTEEGKAAF | 0.13
HMGEWHQMLRSWGETELKNGRQNILDEAVPAFERAMIETALAHTSGRKKDAALLLGWGRNTLTRKLQEHSI | -0.169
HMGEYGVLWYLLTKKEAVSAGELKEKLHVVPGRMTDILTALEKKGLIIRQKNKTDKRVVDVVLTKEGEKEA | -0.731
HMGFAEFWLAYPKKVGKGEAERKWKTLKPDAGAVLSAVKRQSASEQWRKDGGRYIPNPATWLHQRRWE | 0.0452
HMGFALLIAIERTGNTTYFVKLTLIKKGSDSDVLKDSFSVSQGDLVGTATYDSVIANRIREKTAAMWQKAT | -2.76
HMGFDTSMNKYTIDDLLKLLELGSNPSQAEIVNKITNFNTIFVDNSGVIQFLNNIQDKLLDNFK | -0.734
HMGFDTVVEKVLGLITSRPMTSRDIQMTLGRSREHTSRLMNRLYKEGLVDRNTSSKPFSYIITEKGREKI | -0.429
HMGFPAPFDGKAVAELRRRLGLTRRGLAEELSVSPSTVDKWEQGDVALRSPALTILKILWHQGLKALPP | -1.78
HMGFSDDEHNALADADLKKALEVTTNKSETQYNIAKLIYSYIISLGDKKPYGDWSYDKALSIIHDA | -0.0187
HMGGAVQIAEQIAARIKDGALRPGELLPPVRQLAAELEVNPNTVASAYARLRDAGLVATRGRAGTVVLEPP | -0.421
HMGGAYATVKLSSSSSQLNVRASASTASRVVARLSHGFRVEVLGVSGDWVKIRALGVEGYVARAYLALEGE | -3.07
HMGGEAEVLQSIDEGREVEVRSVAADGSAEVIYRGARWRARAAVGSLAAGRWTIGRVDGTELVLEK | -0.0609
HMGGEEKALLFGDVDIREAGEITQRLEQAEIPYELRGDGSSIFVPRSRVMEARMMISADGLL | -0.0934
HMGGEKLPAPVAGTLLRYSVAEGARVSEGQTVIILESMKMELEINTPKAGVIHFLAAVGAQVAEGDTLAEI | -3.46
HMGGGTPEERLATLAAIAERQEMLLERLGPNNPLVSLGQYSRTLSRMVQLAGFKDASQYFNELPLDFQMPE | -0.408
HMGGHLAYGFSRRFGLLIDEQQGEPVIIARPDYSPVHYAEARRIVGQPAALRVVDEQAFNQLLQSQQESGA | -0.512
HMGGLENNLKQARNRVGLTQSELARQAGISRQAYSSLESGAANPSTEVALRLAQALSERVESLFYLPE | -0.117
HMGGNVYAYRLTASVKSGEQIPANKIEKVKMLSSDLPTNYVPDTVNVTAYKSKLDLQAGTILSTSLLYEN | -0.591
HMGGPTARQMEVLSLIAQGLPNKRIADELGIAERTVKLHITALLDSLGARNRTHLLVVARERGM | -2.16
HMGGQKTREAIFDLIMTNSKITSAQIAEILGIHRSGVARHLKKLQEEGLIKREGPDNGGQWIVIK | -0.473
HMGGQYQVRPGETLNQIAARVRPSNMSLSETQKAIIQANPDIFKNGNPNLIFAGDILRIPTGNQI | 0.466
HMGGTTLIAKQATVTGDIQFSSNLDIEGRVVGAISVEPGKEAMLHVVEGGSVEGEIRVPSAVINGKVTGDI | 0.0791
HMGGVEWLTHPIGPRDSLQVLARAGLEARPTSDGDYEIYGQERWPQRDQARLMGWLRRFGQWVWQALYDK | -0.569
HMGHEALSSKLDEIQGVGKEKRSLLLDHFKTFERIKNASMEELEAVPSLGKNTAKAVFRFFHS | -0.0805

Sequence | soluble fraction (log2)
HMGHLTWTVTGIGHERRARTVAEQMSSVFGVLEARASSAGTVYLEFEREKIDEGGLEASLKRMGVTRVV | -2.02
HMGIAFDYDAGRFDQVPPNLVEKWQQAYPAVDVLSELRRMEAWASANPVNRKSNWQRFIVNWLTRAQDRAG | -0.859
HMGIAKYRQVTEWIQNRIATGELNRGDQIESENDISRTFGISRQTVRHALGLLEQQGILTRIQGRGTFVRD | -1.45
HMGIFDIIQEINRQGVTVLLIEQNANMALKIADVGYVLETGRISLTGSGRELLANEAVKKAYL | -1.29
HMGIKYTNQRVEILNFLKDNLSHPTVDDVYEGVKKKLTRISKATVYQNLKFLASKGLIQEVNIKGVSRFEP | -1.98
HMGIRQGKVTSTFVNVRSGASTANAKVGELHKGDVVSLIEKVANFWRIGPGQFVSADYIQVLAS | -2.07
HMGIRYQLADDVTDEQITAMTGKKAKIAAAIKAAGSAVSKMNVAGEMGYDKQNPINKDFMELVDAGIIVPS | -0.0507
HMGISEKVINIIETYTMIARKKYPSVKSLAEHFNVSERTVHRYLEIIKMIDVVDYDREKKGYFFPYGDR | -3.08
HMGISSESIKTFIREIVENEDPKAPLSDQTMVELLAERGIDISRRTVAKYRDEMNLPSSSKRKR | 0.87
HMGKAMIDWEREQSILRILLRQKALTTEQAREVYQDGMREDLSALEMGVQRGYFTHEQLREATGGE | -0.278
HMGKASNEVYEVISSKIRTGEWAPGYKLPSEPTLAEEFGVSRATVREALQELISRGRIKREQGRGTYVLH | -0.0316
HMGKAVTLEEARAIIQAKVPGASPDMIQIWEEHGDGRGRYEGELSYNNMKYEFEMDPKTGIIFDWNA | -0.0538
HMGKEDISQINKLYQNQILDYETYIDTLNSFNIDTKSKDFKNLLDLFIKKSISFETFNKGIINIHNKS | 0.328
HMGKFMVQVGAFSRINGAEITRTKYDNLGTHKAIIKNLDGMNRVFLTGFLSEDEARDFIASSNLKGAFIIR | -2.13
HMGKGVDKIMKMADDYSYGKIAGKTVDVMTAKLFQAAYNKAPQKAKDKVDKMNEKQLYIFMMNLWKRF | -0.768
HMGKIILLFSDDDGVFDTALYRVRNYDGHRFAQSLGNAEMKWRHSEDEYFDFVLTSLREDGYDIEEIE | -1.18
HMGKIINMSKVKQVLRLHTQGVSNRRIALDLGLYKGTVNSYIRKIKDHGYDIAEVLKLDDPVLESKLFA | -0.335
HMGKKGPELNDNEKIIFNIISKENSMNLDDLKNRTELSNKQWDKAIKGLRSHELVNIEKIDDQLLIHL | 0.0386
HMGKKQLVVDLQSIITDVPAALKSYGLEIGQDGKSLIYTYDTKGERTGITTLLNDLQKAGLQMTDMKTQQ | -0.0104
HMGKPTPASQVATRWLAGDLPETLPVAGPAPSFETLARSVSTDFHPRAVLQELLRLGVAEEADGRVRLLK | -0.212
HMGKQPLYEQLVDLLRDRIENDMETGELLPSERKLAHHFGLSRTTVRLAMDRLETLGLITRVHGKDTFVAE | -1.52
HMGKREKTKVANRQAILVAARAVFAELGYEAATVRDIIRGTDLASGTFYNYFKSKEEVFDALADDGA | -1.73
HMGKSETALELIKRGHRLIADDAVEITRIGSTLSGTAPELIRNYLEVRGVGVIDVEKLFGVGAVQDSTQI | 0.0405
HMGKSPLDALSAREKEVLTYITRGVSINDIAAVLYLSPKTVSTHKTNLMQKLGIENNADLILFGVNHGLND | -1.51
HMGLIAPMPGQIRSVAVSVGDVVKKGQTLLTMEAMKMEIRIQALKDGRVTALHAAQGQTVEGEQILIEVE | -2.32
HMGLLEMPSERERQVLVLIAEGLSNKEIAARLYLTEGTVKNHAHSLYAKLNVTTRTLAIARARQLGI | -1.37
HMGLLLSQLDKDYQRYIDLADSTFRDNQLAVSRGWYNRALGVKAAEKYPKDQIAEIEKKIAERM | -0.598
